Results taken from CN110903395A (SICHUAN KELUN BOTAI BIOMEDICAL CO LTD, dated 2020).
Positions count from the first letter of the chain named. Values belong to the binder of their own block, whether it stands above or below them.

Biological target: T1, Trop-2-mFc (human, UniProt P09758 27-274)
T1 construct: Made in-house by 四川科伦博泰; Coated at 1 μg/ml on the ELISA plate; also called 配体Trop-2-mFc
T1 sequence (looked up): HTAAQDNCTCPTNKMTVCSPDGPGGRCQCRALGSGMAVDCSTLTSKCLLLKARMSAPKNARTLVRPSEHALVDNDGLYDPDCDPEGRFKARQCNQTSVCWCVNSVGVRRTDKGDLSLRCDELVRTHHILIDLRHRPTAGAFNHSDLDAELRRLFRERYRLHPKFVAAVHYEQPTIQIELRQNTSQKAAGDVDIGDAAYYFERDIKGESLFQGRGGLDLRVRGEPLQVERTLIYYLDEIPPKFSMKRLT
Test: ELISA, Trop-2-mFc coated at 1 μg/ml, detection with HRP-anti human IgG(H+L)

EC50: 9.91 nM
B1: 疏水性改造TROP-2抗体M1 (antibody, human IgG1, kappa, V domains shown)
VH: QVQLQQSGSELKKPGASVKVSCKASGYTFTNYGMNWVKQAPGQGLKWMGWINTDSGEPTYTDDFKGRFAFSLDTSVSTAYLQISSLKADDTAVYFCARGGFGSSYWYFDVWGQGSLVTVSS
VL: DIQLTQSPSSLSASVGDRVSITCKASQDVSSAVAWYQQKPGKAPKLLIYSASYRYTGVPDRFSGSGSGTDFTLTISSLQPEDFAVYYCQQHYSTPLTFGAGTKVEIKR
notes: Humanized anti-Trop-2 antibody derived from Sacituzumab by hydrophilic CDR mutations; expressed in CHO-S cells, purified on protein A

EC50: 13.1 nM
B2: Sacituzumab抗体 (antibody, V domains shown)
VH: B1 VH with D54Y, S55T
VL: B1 VL with S31I, S93I

EC50: 13.9 nM
B3: 疏水性改造TROP-2抗体M2 (antibody, human IgG1, kappa, V domains shown)
VH: B1 VH
VL: B1 VL with S93I
notes: as for B1

EC50: 10.8 nM
B4: 疏水性改造TROP-2抗体M3 (antibody, human IgG1, kappa, V domains shown)
VH: B1 VH
VL: B1 VL with S31I
notes: as for B1
